According to article PMC7480105, “Wbox2: A clathrin terminal domain–derived peptide inhibitor of clathrin-mediated endocytosis” (The Journal of Cell Biology, 2020):
No end group written: not given here.

Tests used:
Format in all cases: cell-based
[1] = system: TfnR uptake via CME in ARPE/HPV cells; experiment: TfnR uptake (in-cell ELISA) after peptide preincubation; details: 60-min preincubation with peptide at 37°C, concentration curves, n = 4 replicates (Fig. 7 F), read-out: IC50 for inhibition of TfnR uptake
Protocol: Peptides encoding the TAT sequence (YGRKKRRQRRR) followed by 10 amino acid sequences covering the four reported binding sites on the clathrin terminal domain (Fig. 7 A) were synthesized by GenScript (Piscataway, NJ) with >95% purity. Peptides were dissolved in dH2O and further diluted in PBS4+ (1× PBS buffer plus 0.2% BSA, 1 mM CaCl2, 1 mM MgCl2, and 5 mM D-glucose) or cell culture medium (for imaging) when applied to cells. Peptide solutions were stored at −20°C.
Internalization of TfnR, CD44, CD59, and Biotin-Tfn was quantified by in-cell ELISA following established protocols ([Conner and Schmid, 2003]; [Srinivasan et al., 2018]). Cells were seeded in 96-well plates (Costar) at 60–70% confluence and grown overnight. Before the assay, cells were starved for 30 min in PBS4+ at 37°C or treated with peptides in PBS4+ at 37°C for the indicated times. After starvation, cells were moved to 4°C, and culture medium was replaced with cold PBS4+ containing 5 µg/ml HTR-D65 (anti-TfnR mAb; [Schmid and Smythe, 1991]), anti-human CD44 or anti-human CD59 (BD PharMingen) or 5 µg/ml Biotin-Tfn (Sigma-Aldrich). For single-round assays, the above reagents were kept with cells for 20 min at 4°C and then washed out before uptake assay. For multiround assays, the above reagents were kept with cells throughout the uptake process. In parallel, some cells were kept at 4°C for the measurement of surface-bound ligands and blank controls, and some were incubated in a 37°C water bath for the indicated times. Acid wash (0.2 M acetic acid and 0.2 M NaCl, pH 2.3) was used to remove surface-bound antibodies, followed by washing with cold PBS. All were fixed with 4% PFA (Electron Microscopy Sciences) in PBS for 30 min at 37°C. 0.1% Triton X-100 was added for 6.5 min to permeabilize cells, followed by addition of blocking buffer. HTR-D65–, CD44-, and CD59-treated cells were blocked with Q-PBS (PBS, 2% BSA, 0.1% lysine, and 0.01% saponin, pH 7.4), and Biotin-Tfn–treated cells were blocked with 2% casein. Surface-bound and internalized HTR-D65, CD44, and CD59 were probed with goat anti-mouse antibody conjugated with HRP (Sigma-Aldrich), and Biotin-Tfn was probed with Streptavidin-POD conjugate (Sigma-Aldrich). Color was developed using o-phenylenediamine dihydrochloride (OPD) solution (Sigma-Aldrich), and absorbance was read at 490 nm (Biotek Synergy H1 Hybrid Reader). Cell number variation among wells was accounted for by bicinchoninic acid assay reading at 562 nm.

[2] = system: TfnR uptake in ARPE cells; experiment: TfnR uptake with TDD overexpression (Tet-off adenovirus); details: maximum TDD expression, adenovirus-infected ARPE cells, n = 4 replicates (Fig. 2 C)
Protocol: TDD, TD, and tTA adenoviruses were applied to cells directly in culture medium. Pilot experiments were conducted to optimize the volumes of each virus preparation need for uniform infection (Fig. S1, A and B). Experiments were conducted after 12–18 h, allowing for adequate viral infection and protein expression. Protein expression could be regulated by adjusting Tet concentration. All experiments were performed in the absence of Tet, allowing for maximum protein expression, except for Fig. 1, A–C.
(§1) Internalization of TfnR, CD44, CD59, and Biotin-Tfn was quantified by in-cell ELISA following established protocols ([Conner and Schmid, 2003]; [Srinivasan et al., 2018]). Cells were seeded in 96-well plates (Costar) at 60–70% confluence and grown overnight. Before the assay, cells were starved for 30 min in PBS4+ at 37°C or treated with peptides in PBS4+ at 37°C for the indicated times. After starvation, cells were moved to 4°C, and culture medium was replaced with cold PBS4+ containing 5 µg/ml HTR-D65 (anti-TfnR mAb; [Schmid and Smythe, 1991]), anti-human CD44 or anti-human CD59 (BD PharMingen) or 5 µg/ml Biotin-Tfn (Sigma-Aldrich). […] Color was developed using o-phenylenediamine dihydrochloride (OPD) solution (Sigma-Aldrich), and absorbance was read at 490 nm (Biotek Synergy H1 Hybrid Reader). Cell number variation among wells was accounted for by bicinchoninic acid assay reading at 562 nm.

Tfn recycling = experiment: Biotin-Tfn recycling assay; details: TDD expression (0 ng/ml Tet), ARPE/HPV cells, 10- or 30-min pulse (Fig. 2 D)
Protocol: Biotin-Tfn recycling was conducted according to previous protocols ([Chen et al., 2017]). Cells were cultured in biotin-free medium for 48 h, seeded in 96-well plates (Costar) at 60–70% confluence, and grown overnight. Before assay, cells were starved for 45 min in PBS4+ at 37°C or treated with peptides in PBS4+ at 37°C for the indicated times. After starvation, cells were supplied with 100 µl of 5 µg/ml Biotin-Tfn in PBS4+ for 10 or 30 min to load Biotin-Tfn into cells. When loading was complete, cells were cooled down to 4°C and washed with PBS4+ to remove extra Biotin-Tfn. Some cells were kept at 4°C as loading controls. The remaining cells were first treated with avidin and biocytin to mask the surface-bound Biotin-Tfn, and then incubated at 37°C for the indicated times. All the cells were then acid washed and fixed with 4% PFA as above. Blocking steps were the same as for the Biotin-Tfn uptake assay. Data were expressed as percentage of total intracellular ligand remaining relative to the initial load.

[3] = system: fluid phase uptake of HRP in ARPE/HPV cells; experiment: Fluid-phase uptake of HRP; details: TDD expression (0 ng/ml Tet), ARPE/HPV cells (Fig. 2 E)
Protocol: Fluid-phase uptake assays were conducted using HRP (Sigma-Aldrich) as the readout. Cells were seeded in 96-well plates (Costar) at 60–70% confluence and grown overnight. Before assay, cell culture medium was changed to PBS4+ and cooled down to 4°C. Ice-cold HRP solution (1 mg/ml) was added to cells and moved to a 37°C water bath for 30 min. In parallel, some cells were kept at 4°C as blank control. All the cells were acid washed (0.2 M acetic acid and 0.2 M NaCl, pH 2.3) and lysed with ELISA blocking buffer (1% Triton X-100, 0.1% SDS, 0.2% BSA, 50 mM NaCl, and 1 mM Tris, pH 7.4) for 1 h at 4°C. Color was developed using OPD solution (Sigma-Aldrich), and absorbance was read at 490 nm (Biotek Synergy H1 Hybrid Reader).

[4] = system: CD44 uptake in ARPE/HPV cells; experiment: CD44 uptake (clathrin-independent endocytosis marker); details: TDD expression (0 ng/ml Tet), ARPE/HPV cells (Fig. 2 F)
Protocol: as §1, with “(Sigma-Aldrich). For single-round assays, the above reagents were kept with cells for 20 min at 4°C and then washed out before uptake assay. For multiround assays, the above reagents were kept with cells throughout the uptake process. In parallel, some cells were kept at 4°C for the measurement of surface-bound ligands and blank controls, and some were incubated in a 37°C water bath for the indicated times.” for “(Sigma-Aldrich).”

[5] = system: CD59 uptake in ARPE/HPV cells; experiment: CD59 uptake (clathrin-independent endocytosis marker); details: TDD expression (0 ng/ml Tet), ARPE/HPV cells (Fig. 2 F)
Protocol: as §1, with “(Sigma-Aldrich). For single-round assays, the above reagents were kept with cells for 20 min at 4°C and then washed out before uptake assay. For multiround assays, the above reagents were kept with cells throughout the uptake process. In parallel, some cells were kept at 4°C for the measurement of surface-bound ligands and blank controls, and some were incubated in a 37°C water bath for the indicated times.” for “(Sigma-Aldrich).”

[6] = system: association of AP2 with the membrane pellet, ARPE cells; experiment: Subcellular fractionation, AP2 in membrane pellet; details: cells with TDD overexpression, n = 3; control cells 59 ± 14% (Fig. 5 E)
Protocol: Confluent ARPE or ARPE/HPV cells in a 10-cm dish were detached with 3 ml of 50 mM EDTA at 37°C for 10 min. Extra EDTA after detachment was neutralized with 0.2 ml of 1 M MgCl2. Cells were then spun down at 500 g for 3 min and washed with cold PBS. After another spin to remove PBS, cells were resuspended in 0.5 ml ice-cold lysis buffer (25 mM Hepes, 250 mM sucrose, 1 mM MgCl2, and 2 mM EGTA, pH 7.4). Cells were then lysed by five rounds of freeze–thaw cycle (rapid freezing in liquid nitrogen and slow thawing in room temperature water bath, followed by brief vortex and 10-s sonication). Intact cells and nuclei were removed by centrifugation for 2 min at 500 g. 0.1 ml of lysed sample was kept as total control, and the rest (0.4 ml) underwent ultracentrifugation at 4°C for 30 min at 110,000 g to separate membranes (pellet) from cytosol (supernatant). Supernatant was transferred to another low binding Eppendorf, and the pellet was resuspended with the same volume of lysis buffer (0.4 ml). Total, pellet, and supernatant were heat denatured in 1× sample buffer and probed by Western blotting.

ARPE/HPV eGFP-CLCa cells = experiment: TIRFM CCP dynamics with TDD/TD overexpression; details: TIRFM and cmeAnalysis (Fig. 3 C, Fig. 4 C)
Protocol: Cells were seeded on a gelatin-coated 22 × 22–mm cover glass (Corning; 2850-22) overnight and moved to fresh cell culture medium 30 min before being mounted on a 25 × 75–mm slide (Thermo Fisher Scientific; 3050). Imaging was conducted with a 60×, 1.49-NA Apo TIRF objective (Nikon) mounted on a Ti-Eclipse inverted microscope. Perfect focus was used during time-lapse imaging. TIRF penetration depth was ∼80 nm. Videos were acquired for 7.5 min at the rate of 1 frame/s for all live-cell imaging. For dual-color imaging, two sequential images of primary and secondary channel were taken within 1 s, and the video length was the same as single-channel imaging. Published cmeAnalysis software was used for CCP detection, tracking, and quantification ([Aguet et al., 2013]; [Jaqaman et al., 2008]; [Loerke et al., 2011]).

Row | Molecule | IC50 [1] [µM] | inhibition of endocytic efficiency of TfnR [2] [%] | recycling of Tfn (Tfn recycling) | fluid phase uptake (HRP) [3] | CD44 uptake (CIE) [4] | CD59 uptake (CIE) [5] | association of AP2 with the membrane pellet [6] [%] | CCP initiation (ARPE/HPV eGFP-CLCa cells)
1 | YGRKKRRQRRRKTLQIFKSKI [Cbox2] | > 100 | – | – | – | – | – | – | –
2 | TDD: clathrin heavy chain fragment (residues 1–1,074): N-terminal domain plus distal leg, overexpressed by Tet-off adenovirus (protein, left off: HA, N-terminal, kept, clathrin heavy chain fragment (residues 1–1,074): N-terminal domain plus distal leg, overexpressed by Tet-off adenovirus) MAQILPIRFQEHLQLQNLGINPANIGFSTLTMESDKFICIREKVGEQAQVVIIDMNDPSNPIRRPISADSAIMNPASKVIALKAGKTLQIFNIEMKSKMKAHTMTDDVTFWKWISLNTVALVTDNAVYHWSMEGESQPVKMFDRHSSLAGCQIINYRTDAKQKWLLLTGISAQQNRVVGAMQLYSVDRKVSQPIEGHAASFAQFKMEGNAEESTLFCFAVRGQAGGKLHIIEVGTPPTGNQPFPKKAVDVFFPPEAQNDFPVAMQISEKHDVVFLITKYGYIHLYDLETGTCIYMNRISGETIFVTAPHEATAGIIGVNRKGQVLSVCVEEENIIPYITNVLQNPDLALRMAVRNNLAGAEELFARKFNALFAQGNYSEAAKVAANAPKGILRTPDTIRRFQSVPAQPGQTSPLLQYFGILLDQGQLNKYESLELCRPVLQQGRKQLLEKWLKEDKLECSEELGDLVKSVDPTLALSVYLRANVPNKVIQCFAETGQVQKIVLYAKKVGYTPDWIFLLRNVMRISPDQGQQFAQMLVQDEEPLADITQIVDVFMEYNLIQQCTAFLLDALKNNRPSEGPLQTRLLEMNLMHAPQVADAILGNQMFTHYDRAHIAQLCEKAGLLQRALEHFTDLYDIKRAVVHTHLLNPEWLVNYFGSLSVEDSLECLRAMLSANIRQNLQICVQVASKYHEQLSTQSLIELFESFKSFEGLFYFLGSIVNFSQDPDVHFKYIQAACKTGQIKEVERICRESNCYDPERVKNFLKEAKLTDQLPLIIVCDRFDFVHDLVLYLYRNNLQKYIEIYVQKVNPSRLPVVIGGLLDVDCSEDVIKNLILVVRGQFSTDELVAEVEKRNRLKLLLPWLEARIHEGCEEPATHNALAKIYIDSNNNPERFLRENPYYDSRVVGKYCEKRDPHLACVAYERGQCDLELINVCNENSLFKSLSRYLVRRKDPELWGSVLLESNPYRRPLIDQVVQTALSETQDPEEVSVTVKAFMTADLPNELIELLEKIVLDNSVFSEHRNLQNLLILTAIKADRTRVMEYINRLDNYDAPDIANIAISNELFEEAFAIFRK | – | 80 | not significantly perturbed | not significantly inhibited | not significantly inhibited | not significantly inhibited | 76 ± 14 | dramatically decreased
3 | TD: clathrin heavy chain N-terminal domain, generated by mutating T495 to a stop codon in TDD (protein, UniProt Q00610 1-494, looked up, fragment, HA tag, clathrin heavy chain N-terminal domain, generated by mutating T495 to a stop codon in TDD) MAQILPIRFQEHLQLQNLGINPANIGFSTLTMESDKFICIREKVGEQAQVVIIDMNDPSNPIRRPISADSAIMNPASKVIALKAGKTLQIFNIEMKSKMKAHTMTDDVTFWKWISLNTVALVTDNAVYHWSMEGESQPVKMFDRHSSLAGCQIINYRTDAKQKWLLLTGISAQQNRVVGAMQLYSVDRKVSQPIEGHAASFAQFKMEGNAEESTLFCFAVRGQAGGKLHIIEVGTPPTGNQPFPKKAVDVFFPPEAQNDFPVAMQISEKHDVVFLITKYGYIHLYDLETGTCIYMNRISGETIFVTAPHEATAGIIGVNRKGQVLSVCVEEENIIPYITNVLQNPDLALRMAVRNNLAGAEELFARKFNALFAQGNYSEAAKVAANAPKGILRTPDTIRRFQSVPAQPGQTSPLLQYFGILLDQGQLNKYESLELCRPVLQQGRKQLLEKWLKEDKLECSEELGDLVKSVDPTLALSVYLRANVPNKVIQCFAE | – | – | – | – | – | – | – | sufficient to suppress
